According to the Human Domainome abundance scans (Beltran et al. 2025):

B1: CD2-associated protein, residues 109 to 169; numbered along this chain, Q9Y5K6 (parent)
chain: KKRQCKVLFEYIPQNEDELELKVGDIIDINEEVEEGWWSGTLNNKLGLFPSNFVKELEVTD

Variants of: B1
Assay: abundance fitness (aPCA) (normalised: wild type 0, dead -1); higher = more abundant; growth selection in yeast, the domain comes from the species named
Conditions: Homo sapiens

Abundance fitness of substitutions, site by site:
N44: R -0.273, P -0.356, A -0.048, V -0.795, S -0.261, M -0.318, K 0.019, Y -0.483, Q -0.183, L -0.489
T41: M -0.162, E -0.05, V 0.078, W 0.016, H -0.158, A -0.182, N -0.011, Y -0.065, K -0.229, G -0.517, S -0.35, R -0.171, L -0.318, I -0.246, F -0.274, Q -0.062
L48: H -0.291, G -0.618, M -0.107, Q -0.298, E -0.539, D -0.821, F -0.19, C -0.094, N -0.187, I -0.022, P -0.403, K 0.197
W38: A -0.752, C -0.385, H -0.679, Y 0.109, R -0.586, P -0.787, D -0.587, T -0.618, N -0.605, M -0.223, K -0.669, V -0.46, F -0.263, I -0.057, Q -0.55, G -0.569, S -0.49
W37: L -0.344, V -0.255, Y -0.448, T -0.366, P -0.541, K -0.681, M -0.267, R -0.375, S -0.77
K45: Y -0.273, M -0.55, S -0.603, I -0.433, R -0.066, Q 0.04, N -0.183, A -0.779, F -0.695, T -0.458, C -0.065, E -0.453, L -0.638, V -0.556
L42: D -0.241, R -0.388, K -0.317, F -0.616, V -0.064, I -0.242, S 0.042, M -0.486, P -0.732, N 0.12, Y -0.01, C -0.174, T -0.131, E -0.922, A -0.391, H -0.252, Q -0.432, W -0.945, G -0.451
G47: S -1.05, N -0.723, Y -0.434, L -0.922, K -0.773, T -0.644, Q -0.696, I -0.584, W -0.759, M -1.21, P -0.82, F -0.784, D -0.611
G40: Q -1.03, F -0.477, S -0.92, V -0.306, T -1.02, A -0.747, C -0.664, L -1.17, W -0.668
N43: R 0.061, P -0.791, H -0.014, F -0.137, G -0.09, E -0.333, V -0.679, S -0.337, L -0.489, Q -0.275, Y -0.553, K -0.544, M -0.144, T -0.835, C -0.19
L46: V 0.047, Q 0.022, T 0.151, S 0.113, D 0.034, C 0.127, Y 0.011, P -0.196, E 0.138, W 0.013, F 0.092, A 0.031, N 0.074, G -0.303, I 0.169, H 0.035, M 0.006, K 0.069
S39: Q -0.217, K 0.166, P -1.1, H -0.085, E -0.097, Y -0.257, N -0.25, A -0.349, M -0.126, D -0.696, T -0.06, V 0.094, W -0.03, L 0.057, G -0.459
